Measurements published in patent US20040072742A1 (Takeda / Millennium, published 2004).

T1: MD36NT (MD36 from the N terminus to the proline-rich domain, SEQ ID NO:33) fused to yeast GAL4 transcription … (yeast; human, UniProt Q9Y613 1-640, limits assumed)
T1 construct: also called pACT-MD36NT
T1 sequence: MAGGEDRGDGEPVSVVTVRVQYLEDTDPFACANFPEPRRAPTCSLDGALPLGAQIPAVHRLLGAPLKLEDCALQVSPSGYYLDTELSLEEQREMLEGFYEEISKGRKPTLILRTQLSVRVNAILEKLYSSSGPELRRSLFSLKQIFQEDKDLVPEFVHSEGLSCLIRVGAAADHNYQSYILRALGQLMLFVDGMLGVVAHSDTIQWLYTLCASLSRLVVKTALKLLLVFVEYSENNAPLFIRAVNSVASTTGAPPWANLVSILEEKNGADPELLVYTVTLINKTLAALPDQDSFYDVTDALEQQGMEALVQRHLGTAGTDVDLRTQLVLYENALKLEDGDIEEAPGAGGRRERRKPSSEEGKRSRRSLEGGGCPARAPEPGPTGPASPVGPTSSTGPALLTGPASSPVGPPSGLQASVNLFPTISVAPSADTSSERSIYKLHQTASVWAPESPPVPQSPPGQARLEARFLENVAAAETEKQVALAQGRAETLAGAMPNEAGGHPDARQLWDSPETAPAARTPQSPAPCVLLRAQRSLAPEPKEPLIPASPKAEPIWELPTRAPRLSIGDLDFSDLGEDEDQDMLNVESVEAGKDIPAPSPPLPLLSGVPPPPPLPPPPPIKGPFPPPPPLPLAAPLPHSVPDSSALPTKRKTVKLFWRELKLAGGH

T2: full-length MD36 (SEQ ID NO:1) fused to yeast GAL4 transcription activated domain protein (yeast; human, UniProt Q9Y613 1-1164, limits assumed)
T2 construct: also called pACT-MD36; IRAP-BP protein
T2 sequence: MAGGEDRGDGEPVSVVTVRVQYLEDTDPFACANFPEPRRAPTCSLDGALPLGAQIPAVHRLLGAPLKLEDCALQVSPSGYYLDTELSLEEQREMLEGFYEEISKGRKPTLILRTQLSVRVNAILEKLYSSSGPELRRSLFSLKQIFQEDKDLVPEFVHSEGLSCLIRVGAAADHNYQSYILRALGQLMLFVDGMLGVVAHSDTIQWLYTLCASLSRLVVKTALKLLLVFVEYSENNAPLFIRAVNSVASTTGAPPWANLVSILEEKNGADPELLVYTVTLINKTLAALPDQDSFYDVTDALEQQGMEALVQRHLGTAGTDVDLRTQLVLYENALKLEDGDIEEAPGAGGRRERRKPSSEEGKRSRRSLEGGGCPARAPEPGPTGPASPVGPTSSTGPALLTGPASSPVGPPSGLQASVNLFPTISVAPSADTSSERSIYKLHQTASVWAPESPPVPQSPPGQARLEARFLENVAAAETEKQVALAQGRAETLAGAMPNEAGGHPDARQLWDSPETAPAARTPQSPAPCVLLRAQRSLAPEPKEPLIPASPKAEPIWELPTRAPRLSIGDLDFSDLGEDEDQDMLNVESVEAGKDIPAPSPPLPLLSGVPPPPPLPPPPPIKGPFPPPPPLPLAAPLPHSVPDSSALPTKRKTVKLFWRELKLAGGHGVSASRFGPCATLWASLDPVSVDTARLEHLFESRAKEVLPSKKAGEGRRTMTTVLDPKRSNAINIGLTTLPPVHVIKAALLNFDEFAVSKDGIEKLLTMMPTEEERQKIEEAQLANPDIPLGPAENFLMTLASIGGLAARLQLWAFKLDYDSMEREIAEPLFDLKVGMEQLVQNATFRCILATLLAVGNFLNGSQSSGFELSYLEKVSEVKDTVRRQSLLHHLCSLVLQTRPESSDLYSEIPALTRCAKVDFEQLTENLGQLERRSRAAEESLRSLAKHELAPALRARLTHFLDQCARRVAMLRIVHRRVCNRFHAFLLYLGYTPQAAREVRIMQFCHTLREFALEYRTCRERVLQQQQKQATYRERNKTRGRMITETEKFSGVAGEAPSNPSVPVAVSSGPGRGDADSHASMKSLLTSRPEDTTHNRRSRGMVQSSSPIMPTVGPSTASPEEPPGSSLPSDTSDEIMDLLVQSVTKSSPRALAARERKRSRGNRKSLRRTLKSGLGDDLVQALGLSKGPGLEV

B1: profilin II fused to yeast GAL4-DNA-binding domain protein (other)
chain: MKLLSSIEQACDICRLKKLKCSKEKPKCAKCLKNNWECRYSPKTKRSPLTRAHLTEVESRLERLEQLFLLIFPREDLDMILKMDSLQDIKALLTGLFVQDNVNKDAVTDRLASVETDMPLTLRQHRISATSSSEESSNKGQRQLTVSAGWQSYVDNLMCDGCCQEAAIVGYCDAKYVWAATAGGVFQSITPIEIDMIVGKDREGFFTNGLTLGAKKCSVIRDSLYVDGDCTMDIRTKSQGGEPTYNVAVGRAGRALVIVMGKEGVHGGTLNKKAYELALYLRRSDV
notes: also called PFN II; pG-PFNII
B2: profilin IIL fused to yeast GAL4-DNA-binding domain protein (other)
chain: MKLLSSIEQACDICRLKKLKCSKEKPKCAKCLKNNWECRYSPKTKRSPLTRAHLTEVESRLERLEQLFLLIFPREDLDMILKMDSLQDIKALLTGLFVQDNVNKDAVTDRLASVETDMPLTLRQHRISATSSSEESSNKGQRQLTVSMAGWQSYVDNLMCDGCCQEAAIVGYCDAKYVWAATAGGVFQSITPIEIDMIVGKDREGFFTNGLTLGAKKCSVIRDSLYVDGDCTMDIRTKSQGGEPTYNVAVGRAGRVLVFVMGKEGVHGGGLNKKAYSMAKYLRDSGF
notes: Profilin IIL was cloned from human skeletal muscle-derived cDNA; also called PFN IIL

What was measured:
[1] = biological target: T1, MD36NT (MD36 from the N terminus to the …); test: yeast two-hybrid, HIS3 reporter growth on histidine-free medium
Text: (§1) The protein-protein interaction between MD36 and the profilin family was detected by the yeast two-hybrid system. Based on pGBT9 (CLONTECH), expression plasmids were constructed to express the coding regions of profiling I (Evangelista et al., Science, 276, 118-122, 1997; Imamura et al., EMBO J., 16, 2745-2755, 1997; Tanaka, Biochem. Biophys. Res. Commun., 267, 479-481, 2000), profilin II (Schluter et al., Biohim. Biophys. Acta, 1359, 97-109, 1997), and profiling IIL in the form fused to yeast GAL4-DNA-binding domain protein under control of yeast ADH1 promoter. These plasmids were named pG-PFNI, pG-PFNII and pG-PFNIII, respectively (yeast selection marker was TRP1). On the other hand, expression plasmids that express the full-length sequence (SEQ ID NO:1) of MD36, which is IRAP-BP protein, or the coding region from this N-terminus to the sequence (SEQ ID NO:33) including the proline-rich domain in the form fused to yeast […] activated domain protein under control of yeast ADH1 promoter was constructed based on pACT2 (CLONTECH), and named pACT-MD36 and pACT-MD36NT, respectively (yeast selection marker was LEU2). pG-PFNI, pG-PFNII, pG-PFNIII or, pGBT9 for control was co-transfected to yeast Saccharomyces cerevisiae Y190 together with pACT-MD36 or pACT-MD36NT, and yeast strains bearing plasmids from the two were selected on SD medium free of tryptophan and leucine. […]

[2] = biological target: T2, full-length MD36 (SEQ ID NO:1) fused to …; test: as above
Text: as §1

[3] = biological target: T1, MD36NT (MD36 from the N terminus to the …); test: yeast two-hybrid, HIS3 reporter growth
Text: as §1

[4] = biological target: T2, full-length MD36 (SEQ ID NO:1) fused to …; test: yeast two-hybrid, HIS3 reporter growth
Text: as §1

Binder | binding result [1] | binding result [2] | binding result [3] | binding result [4]
B1 | no binding | no binding | – | –
B2 | – | – | binds | binds
